Experimental data published in PMC2606027.

Assays:
[1] = target: KKK HIV-1 IN (D6K/E10K/E13K) fused to the DNA binding domain of Gal4 (HIV-1); test: two-hybrid; Gal4 DBD-IN bait and Gal4 AD-LEDGF IBD prey in S. cerevisiae Y187; β-galactosidase activity relative to WT bait/WT prey (100%); background: WT IN with empty prey vector
[2] = target: LEDGF IBD fused to Gal4 transcription activation domain (WT prey); test: yeast two-hybrid (β-galactosidase reporter); details: S. cerevisiae Y187; quadruplicate measurements; read off a plot
[3] = target: Full-length HIV-1 IN fused to the DNA binding domain of Gal4 (WT bait) (HIV-1); test: two-hybrid

Substance | percent of parent [2] | also measured
EEE LEDGF IBD (K401E/K402E/R405E) fused to Gal4 transcription activation domain (domain or fragment) |  | β-galactosidase activity relative to WT-WT [1]: 40 % of WT-WT
Full-length HIV-1 IN fused to the DNA binding domain of Gal4 (WT bait) E10K; E13K | 1.3 % of WT/WT | 
Full-length HIV-1 IN fused to the DNA binding domain of Gal4 (WT bait) D6K; E10K; E13K | 1.2 % of WT/WT | 
AAA LEDGF IBD (K401A/K402A/R405A) fused to Gal4 transcription activation domain (domain or fragment) |  | binding relative to WT (β-galactosidase activity) [3]: 5 % of WT
